We go through one substance from patent publication EP4810056A2.

For the test, the target named is PD-1 (programmed death 1) on peripheral CD4 T cells of treated subjects (human) (UniProt Q15116). Nature of the test: flow cytometry of free PD-1 on CD4 T cells of subjects after IV MEDI5752 (receptor occupancy, in vivo dosing >225 mg). Background: In flow cytometry, cells or beads pass a laser one at a time.
UniProt Q15116, sequence (Q15116 25-288): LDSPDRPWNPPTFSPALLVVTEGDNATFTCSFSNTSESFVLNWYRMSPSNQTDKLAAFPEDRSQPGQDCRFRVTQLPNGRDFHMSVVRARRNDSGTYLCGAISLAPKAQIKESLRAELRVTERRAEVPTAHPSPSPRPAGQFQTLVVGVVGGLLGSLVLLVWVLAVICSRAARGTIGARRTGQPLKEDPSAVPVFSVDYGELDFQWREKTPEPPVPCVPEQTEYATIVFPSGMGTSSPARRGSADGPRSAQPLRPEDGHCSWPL

For MEDI5752 (bispecific antibody), the peripheral PD-1 receptor occupancy is greater than 90%.
